Measured values from PMC8878492.
“And” between values parts separate entries of the source, which are not always exact repeats. Equal values may be shown once.

Columns and labels:
[1] = molecular target: HAdV-D26 hexon (human adenovirus D26 (HAdV-D26)); assay: cryo-EM structure
[2] = molecular target: HAdV-D26 penton base (human adenovirus D26 (HAdV-D26)); assay: cryo-EM structure

| Substance | stoichiometry N (copies of pVIn in a hexon) [1] | stoichiometry N [2] [subunits] |
| --- | --- | --- |
| cleaved N-terminal fragment of HAdV-D26 pre-protein VI (pVIn) (peptide) | 2 and 3 |  |
| HAdV-D26 penton base (natural protein) |  | 5 |
